Experimental data from patent US20110151450.
Residue numbers refer to the chain shown, from its start.

Key:
Assay in all cases: cleavage_in_vitro
[1] = system: T1, BsmAI-HF N212A (Bacillus stearothermophilus); conditions: NEB4, relative activity 100%
T1 sequence: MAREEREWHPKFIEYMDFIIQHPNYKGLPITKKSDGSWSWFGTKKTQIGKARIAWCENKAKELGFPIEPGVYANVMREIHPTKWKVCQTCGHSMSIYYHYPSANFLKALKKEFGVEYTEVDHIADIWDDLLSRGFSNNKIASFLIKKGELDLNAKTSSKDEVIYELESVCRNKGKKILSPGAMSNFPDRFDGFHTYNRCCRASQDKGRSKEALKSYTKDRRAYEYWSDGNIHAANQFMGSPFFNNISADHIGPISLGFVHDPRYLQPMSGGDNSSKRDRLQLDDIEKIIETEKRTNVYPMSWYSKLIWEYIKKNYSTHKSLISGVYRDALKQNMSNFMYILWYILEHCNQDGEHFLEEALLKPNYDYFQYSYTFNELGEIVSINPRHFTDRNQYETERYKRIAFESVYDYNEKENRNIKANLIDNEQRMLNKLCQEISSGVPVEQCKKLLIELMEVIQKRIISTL

[2] = system: T2, BsmAI-WT (Bacillus stearothermophilus); conditions: NEB4, relative activity 100%
T2 sequence: T1 sequence with A212N

[3] = system: T3, BsmBI-HF W238A (Bacillus stearothermophilus); conditions: NEB4, relative activity 100%
T3 sequence: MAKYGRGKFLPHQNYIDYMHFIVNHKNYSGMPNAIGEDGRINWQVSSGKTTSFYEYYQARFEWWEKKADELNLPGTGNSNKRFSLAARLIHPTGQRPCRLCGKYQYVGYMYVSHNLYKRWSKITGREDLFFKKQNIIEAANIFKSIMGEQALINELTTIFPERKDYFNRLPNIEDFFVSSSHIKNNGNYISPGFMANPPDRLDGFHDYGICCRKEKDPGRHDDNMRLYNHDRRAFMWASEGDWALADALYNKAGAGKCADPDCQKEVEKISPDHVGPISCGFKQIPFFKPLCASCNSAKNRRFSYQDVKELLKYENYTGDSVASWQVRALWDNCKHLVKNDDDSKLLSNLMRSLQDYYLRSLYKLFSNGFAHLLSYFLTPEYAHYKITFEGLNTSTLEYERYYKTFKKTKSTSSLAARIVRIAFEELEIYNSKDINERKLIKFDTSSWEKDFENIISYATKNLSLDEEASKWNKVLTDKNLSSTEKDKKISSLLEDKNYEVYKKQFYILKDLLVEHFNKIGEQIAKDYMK

[4] = system: T4, BsmBI-WT (Bacillus stearothermophilus); conditions: NEB4, relative activity 25%
T4 sequence: T3 sequence with A238W

[5] = system: T5, BstXI-HF N65T (Bacillus stearothermophilus); conditions: NEB4, relative activity 100%
T5 sequence: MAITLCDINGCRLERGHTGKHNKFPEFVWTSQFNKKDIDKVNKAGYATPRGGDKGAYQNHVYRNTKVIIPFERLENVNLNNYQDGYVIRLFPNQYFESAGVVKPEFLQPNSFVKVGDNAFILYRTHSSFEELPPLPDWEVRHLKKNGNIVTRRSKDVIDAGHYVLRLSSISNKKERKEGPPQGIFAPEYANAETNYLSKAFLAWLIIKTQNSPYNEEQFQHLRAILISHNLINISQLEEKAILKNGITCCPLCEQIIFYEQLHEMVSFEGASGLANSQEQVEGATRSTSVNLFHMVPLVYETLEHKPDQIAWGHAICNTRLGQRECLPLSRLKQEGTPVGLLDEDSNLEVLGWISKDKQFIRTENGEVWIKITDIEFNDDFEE

[6] = system: T6, BstXI-WT (Bacillus stearothermophilus); conditions: NEB4, relative activity 100%
T6 sequence: T5 sequence with T65N

[7] = system: T7, DraIII-HF T181A (Deinococcus radiophilus); conditions: NEB4, 37 C 1 h, relative activity 100%; Table 1 gives >=2000
T7 sequence: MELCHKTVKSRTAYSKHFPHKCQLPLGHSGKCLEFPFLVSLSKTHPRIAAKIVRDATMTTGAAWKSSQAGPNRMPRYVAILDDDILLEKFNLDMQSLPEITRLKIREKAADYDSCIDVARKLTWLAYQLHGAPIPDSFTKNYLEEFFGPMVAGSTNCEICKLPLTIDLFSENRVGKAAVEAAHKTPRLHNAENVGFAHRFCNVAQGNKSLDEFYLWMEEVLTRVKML

[8] = system: T8, DraIII-WT (Deinococcus radiophilus); conditions: NEB4, 37 C 1 h, relative activity 50%
T8 sequence: T7 sequence with A181T

[9] = target: T9, HindIII-WT (Haemophilus influenzae) (UniProt P43870); conditions: NEB4, relative activity 50%
T9 sequence: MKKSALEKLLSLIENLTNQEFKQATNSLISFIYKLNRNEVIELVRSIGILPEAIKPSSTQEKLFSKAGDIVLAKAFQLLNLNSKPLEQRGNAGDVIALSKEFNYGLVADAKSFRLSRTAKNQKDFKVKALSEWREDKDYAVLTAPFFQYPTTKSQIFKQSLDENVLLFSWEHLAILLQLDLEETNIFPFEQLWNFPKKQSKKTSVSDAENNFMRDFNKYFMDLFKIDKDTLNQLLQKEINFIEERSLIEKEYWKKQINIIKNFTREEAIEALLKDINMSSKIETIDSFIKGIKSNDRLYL

[10] = system: T10, PspGI-HF R75A (Pyrococcus species); conditions: NEB4, relative activity 100%
T10 sequence: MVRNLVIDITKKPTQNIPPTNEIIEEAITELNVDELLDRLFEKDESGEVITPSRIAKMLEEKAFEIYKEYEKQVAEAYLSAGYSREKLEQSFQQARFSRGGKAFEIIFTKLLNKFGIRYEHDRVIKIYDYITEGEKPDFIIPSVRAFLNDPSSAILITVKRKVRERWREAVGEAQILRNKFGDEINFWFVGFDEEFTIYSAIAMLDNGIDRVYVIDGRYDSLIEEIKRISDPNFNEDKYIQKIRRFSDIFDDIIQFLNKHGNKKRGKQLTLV

[11] = system: T11, PspGI-WT (Pyrococcus species); conditions: NEB4, relative activity 100%
T11 sequence: T10 sequence with A75R

[12] = target: T12, SfiI-HF R114A (Streptomyces fimbriatus) (UniProt O52512); conditions: NEB4, relative activity 100%
T12 sequence: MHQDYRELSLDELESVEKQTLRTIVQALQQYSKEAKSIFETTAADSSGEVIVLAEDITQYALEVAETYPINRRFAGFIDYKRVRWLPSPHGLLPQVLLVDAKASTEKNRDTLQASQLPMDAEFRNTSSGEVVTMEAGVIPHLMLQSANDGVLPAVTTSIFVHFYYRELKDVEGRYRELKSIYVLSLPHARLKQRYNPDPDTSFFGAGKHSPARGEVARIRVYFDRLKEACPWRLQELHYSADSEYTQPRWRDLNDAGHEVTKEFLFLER

[13] = target: T13, SfiI-WT (Streptomyces fimbriatus) (UniProt O52512); conditions: NEB4, relative activity 25%
T13 sequence: T12 sequence with A114R

Q: How did the activity (fidelity index) [1] turn out when FX174 DNA was run?
A: > 4000

Q: And the activity (fidelity index) [2]?
A: 250

Q: How did the activity (fidelity index) [3] turn out when lambda DNA, BsmBI sites was run?
A: 250

Q: What about the activity (fidelity index) [4] of the same substance?
A: 4

Q: Which results are given for lambda DNA, BstXI sites?
A: activity (fidelity index) [5]: > 1000; activity (fidelity index) [6]: 32

Q: For lambda DNA, DraIII sites, which activity (fidelity index) [7] is on record?
A: > 64000

Q: What about the activity (fidelity index) [8] of the same substance?
A: 0.5

Q: Which activity (fidelity index) [9] does the source give for lambda DNA, HindIII sites here?
A: 32

Q: Which results are given for pBC4 plasmid?
A: activity (fidelity index) [10]: > 4000; activity (fidelity index) [11]: 1; activity (fidelity index) [12]: > 8000; activity (fidelity index) [13]: 64
